The text below walks through data of paper PMC9157509.

For this assay, the target named is AB variant of cytochrome cb562 (forms the disulfide-linked dimer (AB)2) (UniProt P0ABE7). The assay can be described thus: solution small-angle X-ray scattering.

One may read the stoichiometry N as the number of molecules, sites or subunits per partner or assembly.

The substance “AB variant of cytochrome cb562 (forms the disulfide-linked dimer (AB)2) (from UniProt P0ABE7 23-128)” displayed a stoichiometry N of 2.
